Entries after “also recorded” stand apart in the source; their conditions may differ. Read-outs that look alike come from different tables or passages of the source.
Assays:
B6 normal mice [1] = assay: MG12 vs. GLP-1 and GLP-2 combo: body weight and small intestine changes; type: in vivo; details: 12 days SC, normalized to cumulative feed intake
Method: In particular, in order to observe changes in body weight and the small intestine following the substance administration, an experiment was conducted in B6 normal mice. […] After starting drug administration twice a week during the test period, feed intake was measured and expressed as cumulative feed intake, and pre-autopsy body weight was measured to calculate the body weight vs. feed intake. After the autopsy, the weight of the small intestine, and mucosal depth and villus height of the duodenum and the jejunum were measured. More specifically, after the autopsy, the entire gastrointestinal tract of the mouse was separated, the mesentery and the pancreas were excised, and the area where the ileum and the cecum meet was cut to separate the small intestine and the large intestine.

[2] = In vivo pharmacokinetics profile after subcutaneous administration (GLP-1-Fc ELISA and GLP-2-Fc ELISA); design: species or system male SD (Sprague Dawley) rats; details: GLP-1-Fc ELISA
Method: First, each protein was administered to 3 male SD (Sprague Dawley) rats per group at a dose of 1 mg/kg by subcutaneous (SC) route. Before injection and after 0.5, 1, 5, 10, 24, 48, 72, 120, and 168 hours after the injection, blood was collected and stored at room temperature for 30 minutes to aggregate. After centrifuging the aggregated blood at 3,000 rpm for 10 minutes, serum of each sample was collected and stored in a cryogenic freezer. Analyses were performed by an assay designed to specifically detect the GLP-1 site and Fc in the administered protein (GLP-1-Fc ELISA) and an assay designed to specifically detect the GLP-2 site and Fc in the administered protein (GLP-2-Fc ELISA). Specifically, a method of loading a biological sample on a plate coated with an antibody that binds to mouse-derived human immunoglobulin G4 (IgG4) to detect the target protein using a biotinylated anti-GLP-1 antibody (GLP-1-Fc ELISA), and a method of loading a biological sample on a plate coated with a monoclonal antibody that specifically reacts with GLP-2, to detect the target protein using a secondary antibody having HRP conjugated to mouse-derived human immunoglobulin G4 (IgG4) (GLP-2-Fc ELISA) were used. The obtained and prepared serum samples were loaded with appropriate dilutions to be analyzed at a position on a straight line of the standard curve.

Balb/c-nude mice = assay: PET-MRI tissue distribution of Zr89-labelled proteins; type: in vivo; details: Zr89 label, SC
Description: Next, the present inventors performed an experiment in Balb/c-nude mice in order to observe the distribution in each tissue organ following the administration of a substance. Zr^89 was used as a radiotracer for tracking the distribution after administration of each substance. Each substance to be administered was labeled with Zr^89 as a reaction condition and a chelator selected through a preliminary test. The labeled Zr^89-protein was purified using a PD-10 column, and Zr^89 labeling efficiency and purity were confirmed using Radio TLC and SEC-HPLC. The labeling efficiency of the Zr^89-protein of 90% or more and the purity of 80% or more were determined to be appropriate, and the labeled protein was administered subcutaneously at 0.2 mCi/0.2 cc. Each administration substance was administered to three animals and static images for 20 minutes were obtained using PET-MRI at 1 hour, 6 hours, 24 hours, 48 hours, and 168 hours after injection. Through image analysis, the distribution of drugs as a function of time in the liver, small intestine, and large intestine was expressed as SUV (Standardized Uptake Value) and comparatively analyzed.

B6 normal mice [3] = assay: Fluorescence spectrometry tissue distribution of Cy5.5-labelled substances; type: in vivo
Method: Next, the present inventors performed an experiment in B6 normal mice in order to observe the distribution in each tissue and organ according to the administration of a bispecific fusion protein according to an embodiment of the present invention. Cy5.5 was used as a fluorophore for tracking the distribution after administration of each substance. Buffer exchange was performed for each substance to be administered, MG12-1, MG12-4, and GLP-1Fc homodimer with boric acid buffer (pH 8.5), and with reference to the protocol of the Cy5.5 labeling kit (GE, #PA15605) were allowed to react with an appropriate amount of Cy5.5 overnight under refrigeration conditions. Unreacted Cy5.5 in the reaction-completed substance was removed through the PBS substitution process, and whether Cy5.5 was reacted well was confirmed through the final SDS-PAGE. Each administered substance was diluted with 10% DMSO/PBS to have the same fluorescence intensity using an ELISA plate reader capable of measuring fluorescence intensity before being administered.

B6 normal mice [4] = assay: Small intestine weight and body weight (GLP-1-Fc homodimer, GLP-2-Fc homodimer, MG12-1, MG12-4); type: in vivo; details: SC twice a week, 4 doses; homodimers 10 nmol/kg, MG12 20 nmol/kg
Description: In addition, the present inventors conducted the same experiment as above while only varying the administered substance, in order to confirm whether the bispecific fusion proteins (MG12-1 and MG12-4) designed in a form other than MG12-5 also increase the small intestine weight and energy absorption rate of experimental animals. Specifically, PBS, 10 nmol/kg GLP-1-Fc homodimer, 10 nmol/kg GLP-2-Fc homodimer, 20 nmol/kg MG12-1, and 20 nmol/kg MG12-4 were subcutaneously administered. The drug was administered twice a week for a total of 4 times for 2 weeks. After 4 doses, the body weight was measured before autopsy, and the small intestine was excised after the autopsy and weighed. After the autopsy, the entire gastrointestinal tract of the mouse was separated, the mesentery and the pancreas were excised, and the area where the ileum and the cecum meet was cut to separate the small intestine and the large intestine. The separated small intestine was perfused and washed with 10% neutral formalin to remove the contents, and was weighed after removing the neutral formalin with an absorbent towel.

GLP-2 receptor = biological target: T1, GLP-2 receptor (Homo sapiens, UniProt O95838); assay: GLP-2 in vitro activity, cAMP/CNG channel membrane potential fluorescence assay (Human GLP2R ACTOne cell line)
T1 sequence (O95838 1-553): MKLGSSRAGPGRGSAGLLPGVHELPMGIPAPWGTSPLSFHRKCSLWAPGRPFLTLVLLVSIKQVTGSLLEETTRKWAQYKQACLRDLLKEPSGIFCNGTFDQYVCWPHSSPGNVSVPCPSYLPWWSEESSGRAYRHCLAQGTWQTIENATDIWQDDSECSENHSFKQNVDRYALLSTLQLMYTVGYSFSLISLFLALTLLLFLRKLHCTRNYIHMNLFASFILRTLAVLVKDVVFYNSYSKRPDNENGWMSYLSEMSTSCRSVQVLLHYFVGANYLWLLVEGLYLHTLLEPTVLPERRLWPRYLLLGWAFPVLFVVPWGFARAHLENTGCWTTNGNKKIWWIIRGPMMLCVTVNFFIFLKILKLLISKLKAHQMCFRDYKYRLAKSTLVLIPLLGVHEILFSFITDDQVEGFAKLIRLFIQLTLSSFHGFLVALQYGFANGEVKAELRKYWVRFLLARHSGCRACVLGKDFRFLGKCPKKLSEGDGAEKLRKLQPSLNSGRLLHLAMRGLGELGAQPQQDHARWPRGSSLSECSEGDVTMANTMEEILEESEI
Method: Specifically, in order to evaluate the degree of CAMP induction by the GLP-2 specific reaction, a transformed cell line (Human GLP2R ACTOne™), having GLP-2 receptor expressed in a cell line expressing CNG channels that open in a CAMP-specific manner, was procured. […] The washed cells were diluted with a cell culture medium (DMEM/high glucose medium, supplemented with 10% FBS, 5% G418, 0.01% puromycin) and seeded at 3˜5×10^4 cells/100 μL/well, and were incubated in an incubator for about 20 hours at 37° C., 5% CO2. After removing the plate from the CO2 incubator, the cells were observed under a microscope, and when the cell confluence reached 80% or more, 1× dye-loaded solution (Elite™ fluorescent membrane potential dye kit, eEnzyme) was added at 100 μL/well. While blocking the light at room temperature, the reaction was carried out for 2 to 2.5 hours, and before adding the test solutions, the fluorescence baseline (F0) was measured using ELISA. Thereafter, the test solutions of various concentrations to be evaluated were treated at 50 μL/well, reacted for 0.5 hours, and then were measured for fluorescence value (Ft) using ELISA. The reactivity of each test solution was evaluated using the Ft/F0 ratio.

[5] = 24 hours after administration, Cy5.5 label

B1: MG12-4: Knob/hole Fc heterodimer: GLP-1/Exendin 4 hybrid (SEQ 5), glycan linker, first fusion protein SEQ 27; GLP-2 (SEQ 17), second fusion protein SEQ 34 (protein)
chain 1: HGEGTFTSDVSSYLEGQAAKEFIAWLVKGGPSSGAPPPSGGGGGSGGGGSGGGGSAKNTTAPATTRNTTRGGEEKKKEKEKEEQEERTHTCPPCPSHTQPLGVFLFPPKPKDQLMISRTPEVTCVVVDVSQEDPEVQFNWYVDGVEVHNAKTKPREEQFNSTYRVVSVLTVLHQDWLNGKEYKCKVSNKGLPSSIEKTISKAKGQPREPQVYTLPPCQEEMTKNQVSLWCLVKGFYPSDIAVEWESNGQPENNYKTTPPVLDSDGSFFLYSRLTVDKSRWQEGNVFSCSVLHEALHNHYTQKSLSLSLGK
chain 2: HGDGSFSDEMNTILDNLAARDFINWLIQTKITDGGGGSGGGGSGGGGSEKEKEEQEERTHTCPPCPSHTQPLGVFLFPPKPKDQLMISRTPEVTCVVVDVSQEDPEVQFNWYVDGVEVHNAKTKPREEQFNSTYRVVSVLTVLHQDWLNGKEYKCKVSNKGLPSSIEKTISKAKGQPREPQVCTLPPSQEEMTKNQVSLSCAVKGFYPSDIAVEWESNGQPENNYKTTPPVLDSDGSFFLVSRLTVDKSRWQEGNVFSCSVLHEALHNHYTQKSLSLSLGK
body weight increase vs. feed intake (B6 normal mice [1]): statistically significant body weight increase compared to the co-administered group | terminal half-life, rank among MG12-1, 3, 4 and 5 [2]: shortest half-life | distribution to the liver (SUV) (Balb/c-nude mice): reduced or showed no difference compared to Fc | distribution to the small intestine and large intestine (SUV) (Balb/c-nude mice): significantly high compared to that of GLP-1-Fc homodimer and GLP-2-Fc homodimer | Average fluorescence intensity, Brain (B6 normal mice [3]; [5]): 297 | Average fluorescence intensity, Large intestine (B6 normal mice [3]; [5]): 2343 | Average fluorescence intensity, Small intestine (B6 normal mice [3]; [5]): 4302 | distribution in the small intestine and the large intestine (B6 normal mice [3]; compared to GLP-1-Fc homodimer): larger | small intestine weight (B6 normal mice [4]): greater increase in small intestine weight than the GLP-2-Fc homodimer administered group; also recorded: superior effect of increasing small intestine weight | weight change before autopsy (body weight) (B6 normal mice [4]): numerical increase in body weight

B2: MG12-2: Knob/hole Fc heterodimer: GLP-2 (SEQ 17), glycan linker, second fusion protein SEQ 33; GLP-1 (SEQ 1), first fusion protein SEQ 25 (protein)
chain 1: HGDGSFSDEMNTILDNLAARDFINWLIQTKITDGGGGSGGGGSGGGGSAKNTTAPATTRNTTRGGEEKKKEKEKEEQEERTHTCPPCPSHTQPLGVFLFPPKPKDTLMISRTPEVTCVVVDVSQEDPEVQFNWYVDGVEVHNAKTKPREEQFNSTYRVVSVLTVLHQDWLNGKEYKCKVSNKGLPSSIEKTISKAKGQPREPQVYTLPPCQEEMTKNQVSLWCLVKGFYPSDIAVEWESNGQPENNYKTTPPVLDSDGSFFLYSRLTVDKSRWQEGNVFSCSVMHEALHNHYTQKSLSLSLGK
chain 2: HGEGTFTSDVSSYLEGQAAKEFIAWLVKGRGGGGGSGGGGSGGGGSEKEKEEQEERTHTCPPCPSHTQPLGVFLFPPKPKDTLMISRTPEVTCVVVDVSQEDPEVQFNWYVDGVEVHNAKTKPREEQFNSTYRVVSVLTVLHQDWLNGKEYKCKVSNKGLPSSIEKTISKAKGQPREPQVCTLPPSQEEMTKNQVSLSCAVKGFYPSDIAVEWESNGQPENNYKTTPPVLDSDGSFFLVSRLTVDKSRWQEGNVFSCSVMHEALHNHYTQKSLSLSLGK
GLP-2 activity lower than that of other variants (GLP-2 receptor): 4-5 times

B3: GLP-2-Fc homodimer: GLP-2 homodimer fused with Fc not containing the Knobs-into-Holes (KiH) structure (protein)
chain: B2 chain 2
modifications: first fusion protein of bispecific fusion protein containing GLP-1 analogue
notes: GLP-2 homodimer fused with Fc not containing the Knobs-into-Holes (KiH) structure
EC50 (GLP-2 receptor; Table 3, GLP-2 activity): 0.44 nM | relative activity (%), GLP-2 activity (GLP-2 receptor; compared to GLP-2-Fc homodimer): 100% | EC50 (GLP-2 receptor; read-out: EC50, GLP-2 activity, Table 4 experiment): 7.7 nM | SUV (Standardized Uptake Value) in liver, small intestine and large intestine (Balb/c-nude mice; 1-168 hours): SUV values were increased compared to Fc in all of the three organs | small intestine weight (B6 normal mice [4]): statistically significant increase | weight change before autopsy (body weight) (B6 normal mice [4]): no change
